Experimental data published in the RNAGym collection of RNA variant scans (doi:10.1073/pnas.2313332121).
Variants at the floor of the assay were thinned out.

B1: TPR 5TU (parent)
chain: GGAUCUUCUCGAUCUAACAAAAAAGACAAAUCUGCCACAAAGCUUGAGAGCAUCUUCGGAUGCAGAGGCGGCAGCCUUCGGUGGCGCGAUAGCGCCAACGUUCUCAACUAUGACACGCAAAACGCGUGCUCCGUUGAAUGGAGUUUAUCAUG

Variants of: B1
Test: polymerase ribozyme fitness, log enrichment relative to wild type (log ratio); higher = more active; in vitro selection for triplet polymerase activity
Method in brief: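 Each subunit of a heterodimeric triplet polymerase ribozyme was mutagenized into a library by PCR, transcribed, and subjected to one round of in vitro selection, run in triplicate. Libraries were annealed with a biotinylated primer, the partner subunit and triplets, incubated frozen at −7 °C, and extended constructs were gel-excised, captured on streptavidin beads and recovered by RT-PCR. Input and output libraries were sequenced on Illumina, keeping genotypes with ≥10 input reads and ≥1 read per output. Fitness is log base 2 of genotype enrichment divided by wild-type enrichment, from inverse-variance-weighted replicate averages.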

Variant | polymerase ribozyme fitness (log ratio)
C85U G100U A121C G124A C125G G136A A142G G152U | ≤ -4.2
C85U C99G G136U | -2.88
C85G G128C | ≤ -4.2
C85G C125A U130C | -1.52
C85U C96U A98G A150G | -2.21
C85U G126U U139A U144C | -3.59
C85U A89U C105U | 0.517
C85U A89U C105G | -1.55
C85A G126A | -1.32
C85U A89U A110C A121U G136A U146C | ≤ -4.2
C85U A91C U102C | ≤ -4.2
C85U A121C | -0.139
C85U C116U G141A | -2.95
C85U A91U C95G G140U | ≤ -4.2
C85U C99G G126A U135G | ≤ -4.2
C85G C93G | -3.68
C85A G133U | ≤ -4.2
C85G G92C A106C A120U A121G U134A | ≤ -4.2
C85A U134C | -0.169
C85A U134G | -3.6
C85G U144G | -1.75
C85U A150C G152U | -3.38
C85G G86A | -3.83
C85A G92U C131G G152C | ≤ -4.2

Variant | polymerase ribozyme fitness (log ratio)
C85U G133C | -1.69
C85U G133U | -2.28
C85U A98C G117C | 0.631
C85A G112U A113C U148G | ≤ -4.2
C85U U127C U145A | -3.58
C85G C87U U145A | -2.77
C85G U139C G143A | ≤ -4.2
C85U A89G A106G G117A G126C G143C | ≤ -4.2
C85G A121G C132U | -2.88
C85U G92U C125A G136C | -3.55
C85G G143U | -3.79
C85U C87G C95G C131A U134G A147U | ≤ -4.2
C85U A107U | -3.65
C85A G117A A138G | -4.18
C85U G152U | -3.73
C85A G94A G128C | -3.21
C85A G94C A121C | -1.84
C85G U90A C114A | ≤ -4.2
C85U C129U | -0.359
C85U U104G | -0.929
C85U U90C | -3.89
C85G C99U G112U C118U | ≤ -4.2
C85U C96U | -0.746
C85G C99G C116G G136U | ≤ -4.2

Variant | polymerase ribozyme fitness (log ratio)
C85A U127A | -3.68
C85U A98U G117A | -0.373
C85A G112U | ≤ -4.2
C85A U139C U145C | ≤ -4.2
C85A G92U G117U | -2.26
C85G C123G U139A | ≤ -4.2
C85G G94A C95G U135A | -3.95
C85A U135G A137U | ≤ -4.2
C85A G124U | -1.9
C85A G124C | -1.69
C85G G94U | -0.835
C85G G141C | -3.06
C85U C105U A106C U135C G141A | -3.94
C85U G86C G88A U90G A121U G128A | ≤ -4.2
C85G U135A | -3.38
C85G U135C | -3.66
C85U G143A | 0.273
C85G G126A U146A | -1.79
C85U A98C G124C | -1.37
C85G A98G U144G | -0.337
C85U A122C | -1.06
C85A G117C | -1.3
C85A G117A | -1.76
C85G C125A C131A C149U | ≤ -4.2

Variant | polymerase ribozyme fitness (log ratio)
C85U A89U G126U U145G | -3.94
C85U C132U | -0.776
C85G A119U | -3.69
C85G U109G U144C | ≤ -4.2
C85A U109G | -1.33
C85A G136C | -4.19
C85U G94A G152C | -3.09
C85U C93G | -3.83
C85U U127C | -2.51
C85U U127A | -3.36
C85A U145G | -1.06
C85U C125G G136A | -0.203
C85U G86U C93U U130A A138U | ≤ -4.2
C85U G128U C131U | -2.93
C85G C116U | -1.66
C85G A142C | -2.98
C85G C95A | -1.68
C85G U144A A150U | -3.7
C85G G94U C118G | -0.928
C85A G140U | -3
C85A G140A | -4.18
C85U C87U U144G | 0.338
C85G A106C G141C | -3.91
C85U A89U A119C | -0.895

Variant | polymerase ribozyme fitness (log ratio)
C85G U102G C129U A150C | ≤ -4.2
C85U G140A | -3.24
C85U A97U A115U | -2.7
C85G G124A G133A | ≤ -4.2
C85U A115U | -2.38
C85U A115G | -2.3
C85U G136U G152C | ≤ -4.2
C85G G133U | ≤ -4.2
C85U G88A A98U | -3.79
C85U G124U | -0.801
C85G C99G | -4.1
C85G C114U | -3.49
C85U G141C | -0.765
C85U G141U | 1.07
C85U C114G G128A | ≤ -4.2
C85U C87U C108U C114A | ≤ -4.2
C85U A115U G140A | -3.77
C85G A147C | -1.67
C85G A147U | -0.872
C85G A106G | -2.59
C85U C93G A150G | ≤ -4.2
C85U C125U | -0.156
C85U C125G | -0.638
C85G A122U C123A | -2.3

Variant | polymerase ribozyme fitness (log ratio)
C85U C95G C108U | ≤ -4.2
C85U C95U G133A | -4
C85G G141A C149G | ≤ -4.2
C85G C149U | -2.46
C85U A142G | -1.38
C85U G128A | -3.29
C85G G92U G136A G141A | -3.06
C85U | -0.513
C85G | -2.05
C85G C118U | -3.37
C85U C116G | -0.942
C85U C116U | -0.233
C85U G117U | 0.675
C85U G117A | 0.212
C85U G136U | -1.83
C85G C118A U146C | -2.72
C85A U109G C118U | -1.54
C85G C116U U144C | -3.36
C85A U135C | -2.15
C85A U135A | -0.589
C85U U101G C105A U109G A110G | -4.19
C85U G94C | -0.28
C85A U148A | -3.51
C85A U148C | -2.22

Variant | polymerase ribozyme fitness (log ratio)
C85G A122C | -1.98
C85A U144A | -0.579
C85A U144C | -0.693
C85A U144G | -0.777
C85U C87U | 0.308
C85A G126C U148A | -4.13
C85G C93U C116U U127G | ≤ -4.2
C85U U101G | -1.15
C85U U101A | -0.791
C85U C105U | -0.279
C85U A89G | -2.67
C85A G94A | -1.74
C85G C96U | -2.26
C85G C96G | -3.49
C85G C125U | -3.35
C85U C103U | -2.17
C85U A98G | -0.688
C85G U135C A138C | ≤ -4.2
C85G C96U C116A A137C | ≤ -4.2
C85U A121U C132A U134A | -4.16
C85A G152U | -3.5
C85G A97G A150U | -2.03
C85U C95U | -1.72
